The values that follow come from paper PMC9170038, “Crowdsourced RNA design discovers diverse, reversible, efficient, self-contained molecular switches”.

What is called Kd is a measure of binding affinity in units of concentration.

B1: Eterna 7644049 (Same State - Tryptophan A) (ssRNA)
RNA: ACAUGAGGAUCACCCAUGUCAUGAGGUUCACGAGGACCGGUACGGCCGCCACUCGACAUGAGGGUCACCCGUGAACGGAACACCC
B2: Eterna 7613251 (Exclusion - Tryptophan A) (ssRNA)
RNA: CGGACAUGAGGAUCACCCAUGUCGUCGACGCGAGGACCGGUACGGCCGCCACUCGCAUGCCAAUGAGCGCAUGCGGCCUGGGUAU
B3: Eterna 6430193 (Small Loop Exclusion NG 3) (ssRNA)
RNA: GUCGAAACCAUACUGGUCGACGGUCAGGAUAUACAUGAGGAUCACCCAUGUGCUAUUGAUACUAUGUAGAAGGGACCCACCGCA
B4: Eterna 7750603 (Exclusion - Arginine A) (ssRNA)
RNA: GGCCGCAAGGCGAGCGCUCCCACUCCGGAAGGAGCGCCCGUAAGGGCAGGUAGGUCGCCGGAGUGAUGUUCCGGUGGAGGGCUCG
B5: Eterna 6387857 (Small Loop Same State NG 3) (ssRNA)
RNA: AAUCUUUUUAUGGGAUUACAAUAUGAGGAUAUCAUUCAUUUAUACAUGAGGAUCACCCAUGUUACUGAGAAGGCAUAUAUAAUA
B6: Eterna 6455078 (Same State NG 2) (ssRNA)
RNA: UGGUACUAGGGAGGAUAUGGGAAGAUACAUGAGGAUCACCCAUGUUUAAGAAUGCCGAGAGGGAACUAGAAGGCCCUAGUACCU
B7: Eterna 6455789 (Same State NG 2) (ssRNA)
RNA: UUGGACGUCGUAGGAUAUGUAGGAUAUUCCUACAUGAGGAUCACCCAUGUUGACAUGGAAGAAGGACAGAAGUACGAUGUCCAU
B8: Eterna 7740449 (Exclusion - Theophylline A) (ssRNA)
RNA: AUGUUUUAUAAACUCAUGGUUUCGACAGAUACCAGCUUCGAGAGGAGCCCUUGGCAGCUGCAUGAGUGAUGUUCAUGUACGAAGA
B9: Eterna 6146814 (Same State NG 1) (ssRNA)
RNA: GGUGUCGCAUGAGGAUAUGGUCAGCUUUGCUGACCAGAAGGCAUGUCAAUAGACAUGAGGAUCACCCAUGUAGUAAAGACACCA
B10: Eterna 6458058 (Inverted Same State NG 2) (ssRNA)
RNA: AAUGGGCAGCAGAAGGCAUGUCUACGGACAUGAGGAUCACCCAUGUAGUAAAGCCGAAAGGCGCAUGAGGAUAUGCUGCCCUAA
B11: Eterna 7717543 (Exclusion - Theophylline B) (ssRNA)
RNA: CCAUUCAUUUACGAUACCAGUCUAAUAUAUUUAAUCAAAACCCUCGCCGAGUGAUGUUCGGACCCUUGGCAGCGUCUGCGACAGG
B12: Eterna 10695 (Exclusion 1) (ssRNA)
RNA: AAUUCACAUGAGGAUCACCCAUGUCAGGAUAUGGUGACGCGGGUUUCGGUGCGUGUUGCCAGAAGGGACGGCUG
B13: Eterna 7741560 (Exclusion - FMN A) (ssRNA)
RNA: UCCUAGGCUCGAAAGAGCCUAGGAUUGACUCAGGAUAUCCGGAAACGGAGAAGGGAGUCACUAGUGAUGUUAGGGAUUCCCUAUU
B14: Eterna 5989868 (Exclusion 3) (ssRNA)
RNA: GUAUCACGAGGAUAUACAUGAGGAUCACCCAUGUAGAAGCCAUGUGGUGCUCAAGUAUGUAGAAGGCGUGCUCC
B15: Eterna 6122145 (Exclusion NG 2) (ssRNA)
RNA: AAAUUUAACGAAGGAUAUGCUGACAUGAGGAUCACCCAUGUGUGCUUUGUGUUGCUGAAAUGGGAGCAGAAGGUCGUAUACAUA
B16: Eterna 6461493 (Inverted Same State NG 1) (ssRNA)
RNA: GUGCUUUGGGAGAAGGCCGUAUGCAAAGCAUACGGAGGAUAUUCAUACCGGAAACGGACAUGAGGAUCACCCAUGUGGCACAAA
B17: Eterna 6075609 (Exclusion 3) (ssRNA)
RNA: CUGAGUUAAGGAUAUACAUGAGGAUCACCCAUGUAAAGUAGCUUGCGUACAGGCAGAUGUAGAAGGUAAUUCGG
B18: Eterna 11543 (Sensor v3, turn-off variant 1) (ssRNA)
RNA: AAAGAAGAGAGAAAAUAACACAUGAGGAUCACCCAUGUGAGAAGUUGAGGGUGAUACAGGCUUUAUGCUCGUCUUAU
B19: Eterna 1618 (Same State - Theophylline A) (ssRNA)
RNA: GAUUGAGUGAUGUUCAAUUAGUAUCUAGAUACCAGAAUGUCUACCUUCCCUUGGCAGCUACUGACGGUGAUCAUUUCGCGCGCAG
B20: Eterna 6045632 (Brourd's mod of Exclusion 4) (ssRNA)
RNA: CGGGCUGCUGUGAGGAUAUGCCUGUGGGUGCGUGGGUAGAAGGCACAUGAGGAUCACCCAUGUCCUGCAGCUCG
B21: Eterna 13277 (Sensor for hsa-mir-208a) (ssRNA)
RNA: AGUUGUGGGAAACUAUAGCAGACGCUCGUACAUGAGGAUCACCCAUGUCUUGUAGGAGCUGUUUGCUCGUUUUAUGG
B22: Eterna 15090 (Exclusion 6) (ssRNA)
RNA: AAAUGGGCGUAGGAUAUGAGAUGGUCUAGCAGCUCAGAAGGACGCACAUGAGGAUCACCCAUGUGAUCGGACUA
B23: Eterna 6446347 (Same State NG 2) (ssRNA)
RNA: GGGUACAUCGGAGGAUAUCAUGUAAAUACAUGAGGAUCACCCAUGUCGGUGGAGACAUCGGAGAUUGAGAAGGCCGAUGUACCG
B24: Eterna 6122649 (Exclusion NG 2) (ssRNA)
RNA: UUAUCUUGUCAAGGAUAUGUUGUAUUGAUCUGAAAACAUGAGGAUCACCCAUGUAUACGGUGGGAACAGAAGGUGAAUGUAGAA
B25: Eterna 8603 (Same State 1) (ssRNA)
RNA: AUAAAACAUGAGGAUCACCCAUGUCAACAAAGUCGAGGAUAUGGGCAAAUAAAAUAAGAACCAGAAGGCGUAUAAU
B26: Eterna 6461246 (Same State NG 1) (ssRNA)
RNA: GUUUUCGCAUGAGGAUAUGCUCGCAUUUUAAGAGCAGAAGGUAUGUCUUUAGACAUGAGGAUCACCCAUGUAUUUAUCAUUGAA
B27: Eterna 7744734 (Exclusion - Tryptophan A) (ssRNA)
RNA: CGUGAAUGUCGUCAGUCAUCGGUCCAUGCACGAGGACCGGUACGGCCGCCACUCGAGCGUGGCAGUGAUGUUGCCAGCGCACUAA
B28: Eterna 13730 (Sensor v3, turn-off variant 1) (ssRNA)
RNA: CCGAGGAAGCGGUCCUAUGACAUGAGGAUCACCCAUGUACCUCGCUACGAGCUUUUUGCUCGUCUUAUAAUUCUCGG
B29: Eterna 1184 (Exclusion - Theophylline B) (ssRNA)
RNA: AACACCCGCUAUGAUACCAGUGAAGUGAUGUUUUACUCCGGGCGUAAGACAAAGGUCAGCCACCCUUGGCAGCAUAUCCGCGUAU
B30: Eterna 6069320 (Exclusion 4) (ssRNA)
RNA: GGGUUGUGAGGAUAUUAGUUGUACGUCAAUAGACGUAUGGGUGAGAAGGCACAUGAGGAUCACCCAUGUUCCUG
B31: Eterna 7763203 (Exclusion - FMN B) (ssRNA)
RNA: AAAUAACAGGCAGGAUAUGCUUAGUAAUAAGGCCAUAUAUACGUAUAGAGUGAUGUUUUGUACAAAGCAGAAGGGCUAAAUCCAU
B32: Eterna 6402815 (Same State NG 2) (ssRNA)
RNA: ACCUCGUACACAGGAUAUGAUUACUUGCAGCCUGCGUUGACAUGAGGAUCACCCAUGUGGACUGAUCAGAAGGGUGAACGGAAG
B33: Eterna 7689684 (Same State - Theophylline A) (ssRNA)
RNA: UGGAGUUGACGAAAAGUCAACUCCUGAGAUACCAGUGACGAAAGUCACCCUUGGCAGCUCACUGCCAGUGAUGUUGGAAAUAAAA
B34: Eterna 7740311 (Same State - Theophylline A) (ssRNA)
RNA: AAAAUAAGCCAGUGAUGUUGGUAUACAGAUACCAGCGACGAAAGUCGCCCUUGGCAGCUGUGGACGUACAAAAUAAGUACGUCCU
B35: Eterna 5958897 (Exclusion NG 2) (ssRNA)
RNA: AGCUGUGGCCGAGGAUAUCUAUCCCAAAUAACCGAAAUAUAAUCGGACAUGAGGAUCACCCAUGUAGAGAAGGCGGUCUCAGCA

The first data set concerns the target T1, MS2 coat protein, dlFG mutant (Escherichia phage MS2, UniProt P03612, del68-81insG). Nature of the data set: 4 mM Mg2+; L-tryptophan 2.4 mM; RNA-MaP array; 100 mM Tris-HCl pH 7.5, 80 mM KCl, 4 mM MgCl2, 0.1 mg/mL BSA, 1 mM DTT, 0.01 mg/mL yeast tRNA, 0.01% Tween-20; protein 1.5 nM to 3 uM; 37 C (Table S3). The following applies: chain copies: 2; label: tethered by stalled RNA polymerase.
For the molecule B1, the affinity, expressed as Kd, was 20 nM.
With B2, binding was put at a Kd of 22.8 nM. The Kd values of the last two molecules are within 1.5-fold of each other.

The target of a further data set is T1, MS2 coat protein, dlFG mutant. Nature of the data set: 4 mM Mg2+; FMN 200 uM; RNA-MaP array; 100 mM Tris-HCl pH 7.5, 80 mM KCl, 4 mM MgCl2, 0.1 mg/mL BSA, 1 mM DTT, 0.01 mg/mL yeast tRNA, 0.01% Tween-20; protein 1.5 nM to 3 uM; 37 C (Table S3). Conditions: chain copies: 2; label: tethered by stalled RNA polymerase.
The molecule B3 registered a Kd of 24.4 nM.

The target is the same in the next data set. Nature of the data set: 4 mM Mg2+; no ligand; RNA-MaP array; 100 mM Tris-HCl pH 7.5, 80 mM KCl, 4 mM MgCl2, 0.1 mg/mL BSA, 1 mM DTT, 0.01 mg/mL yeast tRNA, 0.01% Tween-20; protein 1.5 nM to 3 uM; 37 C (Table S3). The following applies: chain copies: 2; label: tethered by stalled RNA polymerase.
B4 returned a Kd above 3000 nM.
The molecule B5 had a Kd of 28.4 nM.
The same measure, in the same setting: the figure for B6 is 255 nM; for B7 it is 127 nM.
On the same count and under the same terms, the figure for B8 is above 3000 nM; for B9 it is 504 nM.
On the same count and under the same terms, the figure for B10 is 121 nM; for B11 it is above 3000 nM.
In turn, B12 showed a Kd of 133 nM.
Still for that read-out and setting: the figure for B13 is above 3000 nM; for B14 it is 36.1 nM.
Turning to B15, binding was put at a Kd of 118 nM.
In the case of B16, the affinity, expressed as Kd, was 1200 nM.
Still for that read-out and setting: the figure for B17 is 43 nM.
Same read-out and setting: under B18 stands 203 nM; under B19, above 3000 nM; under B20, 1130 nM.
In turn, B21 registered a Kd of 63.8 nM.
Same read-out and setting: under B22 stands 28.7 nM.
B23 registered a Kd of 271 nM. This Kd lies about 9.4-fold higher than the previous one.
Molecule B24 came in with a Kd of 808 nM.
Still for that read-out and setting: the figure for B25 is 530 nM; for B26 it is 162 nM.
For B27, the Kd is above 3000 nM.
Take B28: the Kd is 23.6 nM. This counts as double-digit nanomolar.
Still for that read-out and setting: the figure for B29 is above 3000 nM.
Same read-out and setting: under B30 stands 107 nM; under B31, above 3000 nM; under UUUCUUAUUCUUUAUUGUGGGGUUUU (ssRNA) [Eterna 4 (OligoAControl)], above 3000 nM.
The molecule B32 displayed a Kd of 571 nM.
Consider B33, for which the Kd is above 3000 nM.
Still for that read-out and setting: the figure for B34 is above 3000 nM.
On the same count and under the same terms, under B35 stands 28.4 nM; under UUUGCAGGGCAGUGAUGUUGCCCUGCUUU (ssRNA) [Eterna 8 (K4-8bp_control)], above 3000 nM.
